The target of one test is T1, LZTR1-FLAG (human, UniProt Q8N653 1-840).
T1 construct: Expressed in HEK 293T, HeLa or U87 cells; used as cell lysate; also called LZTR1 wild type-FLAG; LZTR1 WT; not shown: FLAG tag at the C-terminus
T1 sequence (looked up): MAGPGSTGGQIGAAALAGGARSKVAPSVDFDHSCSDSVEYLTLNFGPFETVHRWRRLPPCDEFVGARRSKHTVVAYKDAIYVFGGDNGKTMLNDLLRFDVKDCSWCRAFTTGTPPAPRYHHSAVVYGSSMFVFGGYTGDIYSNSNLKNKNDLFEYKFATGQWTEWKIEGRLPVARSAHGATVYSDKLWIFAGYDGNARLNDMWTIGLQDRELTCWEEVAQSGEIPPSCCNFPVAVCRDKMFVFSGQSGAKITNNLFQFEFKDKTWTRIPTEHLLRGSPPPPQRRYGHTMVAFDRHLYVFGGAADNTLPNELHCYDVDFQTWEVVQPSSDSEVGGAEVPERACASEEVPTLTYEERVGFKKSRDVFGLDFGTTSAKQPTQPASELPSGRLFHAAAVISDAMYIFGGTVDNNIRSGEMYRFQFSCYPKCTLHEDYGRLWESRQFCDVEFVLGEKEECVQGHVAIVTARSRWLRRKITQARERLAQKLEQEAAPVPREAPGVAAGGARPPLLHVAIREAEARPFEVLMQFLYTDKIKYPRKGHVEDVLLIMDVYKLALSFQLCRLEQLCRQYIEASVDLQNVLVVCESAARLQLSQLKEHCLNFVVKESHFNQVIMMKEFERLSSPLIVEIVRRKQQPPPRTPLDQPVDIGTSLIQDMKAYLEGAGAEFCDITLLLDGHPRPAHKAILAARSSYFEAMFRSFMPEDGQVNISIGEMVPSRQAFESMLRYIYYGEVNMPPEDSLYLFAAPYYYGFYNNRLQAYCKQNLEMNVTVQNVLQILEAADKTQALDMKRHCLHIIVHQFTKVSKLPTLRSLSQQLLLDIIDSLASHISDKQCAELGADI
The test is described as follows: IP/MS, LZTR1 wild type-FLAG, U87. The gist of the method: (§1)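 Read-out: spectral counts from LC-MS/MS (Orbitrap Fusion) after MaxQuant identification. Variable modifications were Met oxidation, protein N-terminal acetylation and N/Q deamidation.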

For another test, the target named is T2, LZTR1 R810W-FLAG (human, UniProt Q8N653 1-840).
T2 construct: Stably expressed in U87 cells by lentivirus; also called LZTR1-FLAG-R810W; LZTR1 RW; not shown: FLAG tag
T2 sequence (looked up): T1 sequence (looked up) with R810W
The test is described as follows: IP/MS, LZTR1 R810W-FLAG, U87. In short, it runs like this: as §1

Positions count from the first letter of the chain named.

B1: KLHDC10 (other, human, UniProt Q6PID8 1-442, looked up)
chain: MSAAQGWDRNRRRGGGAAGAGGGGSGAGGGSGGSGGRGTGQLNRFVQLSGRPHLPGKKKIRWDPVRRRFIQSCPIIRIPNRFLRGHRPPPARSGHRCVADNTNLYVFGGYNPDYDESGGPDNEDYPLFRELWRYHFATGVWHQMGTDGYMPRELASMSLVLHGNNLLVFGGTGIPFGESNGNDVHVCNVKYKRWALLSCRGKKPSRIYGQAMAIINGSLYVFGGTTGYIYSTDLHKLDLNTREWTQLKPNNLSCDLPEERYRHEIAHDGQRIYILGGGTSWTAYSLNKIHAYNLETNAWEEIATKPHEKIGFPAARRCHSCVQIKNDVFICGGYNGEVILGDIWKLNLQTFQWVKLPATMPEPVYFHCAAVTPAGCMYIHGGVVNIHENKRTGSLFKIWLVVPSLLELAWEKLLAAFPNLANLSRTQLLHLGLTQGLIERLK
Regarding B1, the binding result with LZTR1-FLAG and with LZTR1 R810W-FLAG was “binds” in each case.

B2: KLHL11 (other, human, UniProt Q9NVR0 16-708, looked up)
chain: ASLQVLEMESMETAAAGSAGLAAEVRGSGTVDFGPGPGISAMEASGGDPGPEAEDFECSSHCSELSWRQNEQRRQGLFCDITLCFGGAGGREFRAHRSVLAAATEYFTPLLSGQFSESRSGRVEMRKWSSEPGPEPDTVEAVIEYMYTGRIRVSTGSVHEVLELADRFLLIRLKEFCGEFLKKKLHLSNCVAIHSLAHMYTLSQLALKAADMIRRNFHKVIQDEEFYTLPFHLIRDWLSDLEITVDSEEVLFETVLKWVQRNAEERERYFEELFKLLRLSQMKPTYLTRHVKPERLVANNEVCVKLVADAVERHALRAENIQSGTCQHPTSHVSLLPRYGQNMDVIMVIGGVSEGGDYLSECVGYFVDEDRWVNLPHIHNHLDGHAVAVTESYVYVAGSMEPGFAKTVERYNPNLNTWEHVCSLMTRKHSFGLTEVKGKLYSIGGHGNFSPGFKDVTVYNPELDKWHNLESAPKILRDVKALAIEDRFVYIAARTPVDRDTEDGLKAVITCYDTETRQWQDVESLPLIDNYCFFQMSVVNSNFYQTASCCPKSYCLENEEAVRKIASQVSDEILESLPPEVLSIEGAAICYYKDDVFIIGGWKNSDDIDKQYRKEAYRYCAERKRWMLLPPMPQPRCRATACHVRIPYRYLHGTQRYPMPQNLMWQKDRIRQMQEIHRHALNMRRVPSSQIEC
In the case of B2, the binding result with LZTR1-FLAG and with LZTR1 R810W-FLAG was “binds” throughout.

B3: KLHL26 (other, human, UniProt Q53HC5 2-615, looked up)
chain: AESGGSSGGAGGGGAFGAGPGPERPNSTADKNGALKCTFSAPSHSTSLLQGLATLRAQGQLLDVVLTINREAFPAHKVVLAACSDYFRAMFTGGMREASQDVIELKGVSARGLRHIIDFAYSAEVTLDLDCVQDVLGAAVFLQMLPVVELCEEFLKAAMSVETCLNIGQMATTFSLASLRESVDAFTFRHFLQIAEEEDFLRLPLERLVFFLQSNRLQSCAEIDLFRAAVRWLQHDPARRPRASHVLCHIRFPLMQSSELVDSVQTLDIMVEDVLCRQYLLEAFNYQVLPFRQHEMQSPRTAVRSDVPSLVTFGGTPYTDSDRSVSSKVYQLPEPGARHFRELTEMEVGCSHTCVAVLDNFVYVAGGQHLQYRSGEGAVDACYRYDPHLNRWLRLQAMQESRIQFQLNVLCGMVYATGGRNRAGSLASVERYCPRRNEWGYACSLKRRTWGHAGAASGGRLYISGGYGISVEDKKALHCYDPVADQWEFKAPMSEPRVLHAMVGAGGRIYALGGRMDHVDRCFDVLAVEYYVPETDQWTSVSPMRAGQSEAGCCLLERKIYIVGGYNWRLNNVTGIVQVYNTDTDEWERDLHFPESFAGIACAPVLLPRAGTRR
Turning to B3, the binding result with LZTR1-FLAG and with LZTR1 R810W-FLAG was “binds” in each case.

B4: MALT1 (other, human, UniProt Q9UDY8 2-824, looked up)
chain: SLLGDPLQALPPSAAPTGPLLAPPAGATLNRLREPLLRRLSELLDQAPEGRGWRRLAELAGSRGRLRLSCLDLEQCSLKVLEPEGSPSLCLLKLMGEKGCTVTELSDFLQAMEHTEVLQLLSPPGIKITVNPESKAVLAGQFVKLCCRATGHPFVQYQWFKMNKEIPNGNTSELIFNAVHVKDAGFYVCRVNNNFTFEFSQWSQLDVCDIPESFQRSVDGVSESKLQICVEPTSQKLMPGSTLVLQCVAVGSPIPHYQWFKNELPLTHETKKLYMVPYVDLEHQGTYWCHVYNDRDSQDSKKVEIIIGRTDEAVECTEDELNNLGHPDNKEQTTDQPLAKDKVALLIGNMNYREHPKLKAPLVDVYELTNLLRQLDFKVVSLLDLTEYEMRNAVDEFLLLLDKGVYGLLYYAGHGYENFGNSFMVPVDAPNPYRSENCLCVQNILKLMQEKETGLNVFLLDMCRKRNDYDDTIPILDALKVTANIVFGYATCQGAEAFEIQHSGLANGIFMKFLKDRLLEDKKITVLLDEVAEDMGKCHLTKGKQALEIRSSLSEKRALTDPIQGTEYSAESLVRNLQWAKAHELPESMCLKFDCGVQIQLGFAAEFSNVMIIYTSIVYKPPEIIMCDAYVTDFPLDLDIDPKDANKGTPEETGSYLVSKDLPKHCLYTRLSSLQKLKEHLVFTVCLSYQYSGLEDTVEDKQEVNVGKPLIAKLDMHRGLGRKTCFQTCLMSNGPYQSSAATSGGAGHYHSLQDPFHGVYHSHPGNPSNVTPADSCHCSRTPDAFISSFAHHASCHFSRSNVPVETTDEIPFSFSDRLRISEK
As to B4, the binding result with LZTR1-FLAG and with LZTR1 R810W-FLAG was “binds” each time.

B5: MAEA (other, human, UniProt Q7L5Y9 1-396, looked up)
chain: MAVQESAAQLSMTLKVQEYPTLKVPYETLNKRFRAAQKNIDRETSHVTMVVAELEKTLSGCPAVDSVVSLLDGVVEKLSVLKRKAVESIQAEDESAKLCKRRIEHLKEHSSDQPAAASVWKRKRMDRMMVEHLLRCGYYNTAVKLARQSGIEDLVNIEMFLTAKEVEESLERRETATCLAWCHDNKSRLRKMKSCLEFSLRIQEFIELIRQNKRLDAVRHARKHFSQAEGSQLDEVRQAMGMLAFPPDTHISPYKDLLDPARWRMLIQQFRYDNYRLHQLGNNSVFTLTLQAGLSAIKTPQCYKEDGSSKSPDCPVCSRSLNKLAQPLPMAHCANSRLVCKISGDVMNENNPPMMLPNGYVYGYNSLLSIRQDDKVVCPRTKEVFHFSQAEKVYIM
As to B5, the binding result with LZTR1-FLAG and with LZTR1 R810W-FLAG was “binds” in each case.

B6: KLHL21 (other, human, UniProt Q9UJP4 1-597, looked up)
chain: MERPAPLAVLPFSDPAHALSLLRGLSQLRAERKFLDVTLEAAGGRDFPAHRAVLAAASPYFRAMFAGQLRESRAERVRLHGVPPDMLQLLLDFSYTGRVAVSGDNAEPLLRAADLLQFPAVKEACGAFLQQQLDLANCLDMQDFAEAFSCSGLASAAQRFILRHVGELGAEQLERLPLARLLRYLRDDGLCVPKEEAAYQLALRWVRADPPRRAAHWPQLLEAVRLPFVRRFYLLAHVEAEPLVARCPPCLRLLREARDFQAARYDRHDRGPCPRMRPRPSTGLAEILVLVGGCDQDCDELVTVDCYNPQTGQWRYLAEFPDHLGGGYSIVALGNDIYVTGGSDGSRLYDCVWRYNSSVNEWAEVAPMLKAREYHSSSVLDGLLYVVAADSTERYDHTTDSWEALQPMTYPMDNCSTTACRGRLYAIGSLAGKETMVMQCYDPDTDLWSLVDCGQLPPWSFAPKTATLNGLMYFVRDDSAEVDVYNPTRNEWDKIPSMNQVHVGGSLAVLGGKLYVSGGYDNTFELSDVVEAYDPETRAWSVVGRLPEPTFWHGSVSIFRQFMPQTFSGGRGFELDSGSDDMDPGRPRPPRDPDELH
B6: the binding result with LZTR1-FLAG and with LZTR1 R810W-FLAG was “binds” throughout.

Source of the values: US20250262210A1 (TRUSTEES OF COLUMBIA UNIVERSITY IN THE CITY OF NEW YORK, published 2025).
